# Source: IntAct's records for PubMed 25680527
# B1: Pirin (Homo sapiens), O00625 (parent)
# chain: MGSSKKVTLSVLSREQSEGVGARVRRSIGRPELKNLDPFLLFDEFKGGRPGGFPDHPHRGFETVSYLLEGGSMAHEDFCGHTGKMNPGDLQWMTAGRGILHAEMPCSEEPAHGLQLWVNLRSSEKMVEPQYQELKSEEIPKPSKDGVTVAVISGEALGIKSKVYTRTPTLYLDFKLDPGAKHSQPIPKGWTSFIYTISGDVYIGPDDAQQKIEPHHTAVLGEGDSVQVENKDPKRSHFVLIAGEPLREPVIQHGPFVMNTNEEISQAILDFRNAKNGFERAKTWKSKIGN
# partner: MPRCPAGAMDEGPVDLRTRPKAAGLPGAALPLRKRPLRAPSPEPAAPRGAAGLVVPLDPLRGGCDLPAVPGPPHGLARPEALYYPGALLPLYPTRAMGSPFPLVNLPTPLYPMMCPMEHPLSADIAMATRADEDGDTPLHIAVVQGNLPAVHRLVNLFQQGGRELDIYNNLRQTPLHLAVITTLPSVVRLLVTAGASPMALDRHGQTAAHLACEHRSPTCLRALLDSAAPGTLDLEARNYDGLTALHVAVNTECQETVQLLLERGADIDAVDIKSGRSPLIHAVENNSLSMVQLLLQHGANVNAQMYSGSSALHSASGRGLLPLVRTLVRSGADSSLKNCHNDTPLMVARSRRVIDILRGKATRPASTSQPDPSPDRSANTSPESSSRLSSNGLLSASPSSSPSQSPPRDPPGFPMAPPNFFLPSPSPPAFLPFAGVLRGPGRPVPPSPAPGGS
# Variants of: B1
# Settings: with bcl3_human BCL3, P20749
row,Variant,effect of a mutation on the interaction
1,MGSSKKVTLSVLSREQSEGVGARVRRSIGRPELKNLDPFLLFDEFKGGRPGGFPDHPHRGFETVSYLLEGGSMAHEDFCGHTGKMNPGDLQWMTAGRGILHAAMPCSEEPAHGLQLWVNLRSSEKMVEPQYQELKSEEIPKPSKDGVTVAVISGEALGIKSKVYTRTPTLYLDFKLDPGAKHSQPIPKGWTSFIYTISGDVYIGPDDAQQKIEPHHTAVLGEGDSVQVENKDPKRSHFVLIAGEPLREPVIQHGPFVMNTNEEISQAILDFRNAKNGFERAKTWKSKIGN [E103A],disrupting interaction
